Data on 2 substances can be found in PMC3249379.

Assay in all cases: AUC
Test [1] addresses GluA4 flip ectodomain, L484Y mutant (R. norvegicus).
For test [2] the target is unchanged. This is another data set of the same source.
The target of test [3] is GluA4 flip ectodomain, wild type (NTD and LBD in a tandem array) (R. norvegicus).

Where two headings read alike, the source gives them in different places.

As usually defined, the Kd is a measure of binding affinity in units of concentration. A low value points to higher affinity. By stoichiometry N is commonly meant a count of units in the complex or per binding partner. Take “GluA4 flip ectodomain, L484Y mutant (domain or fragment)”: the Kd in test [1] is 1500 nM; in test [2], 1100 nM. In test [2], this substance yielded a stoichiometry N of 4.

Turning to “GluA4 flip ectodomain, wild type (NTD and LBD in a tandem array) (domain or fragment)”, in test [3], the Kd worked out at 300 nM and the stoichiometry N came out at 2.
